Several values for one entry are separate records, joined by “and”; a condition that tells them apart may be missing. Identical values can stand only once.
Molecular target: recombinant RB47 (r-RB47), containing only the four RNA recognition motif domains, histidine tag fus (Chlamydomonas reinhardtii)
Assay: cell-based or functional assay

Substance: recombinant RB60 (r-RB60), histidine tag fusion expressed in E. coli (enzyme)
- RNA binding activity of r-RB47 (gel mobility-shift assay) after incubation with GSSG and r-RB60: 5 fold and 6 fold
